For this test, the target named is Recombinant human His6-tagged Hsp70 (human), P0DMV8. Nature of the test: ELISA with streptavidin-peroxidase after gel filtration of Hsp70 loaded with biotinylated peptide C (ADP).

No end group written: not given here. *: point of attachment. Biotin = O=C1N[C@H]2[C@H](CS[C@H]2CCCCC(=O)*)N1

Sequence of Recombinant human His6-tagged Hsp70 (human), P0DMV8 (P0DMV8 2-641): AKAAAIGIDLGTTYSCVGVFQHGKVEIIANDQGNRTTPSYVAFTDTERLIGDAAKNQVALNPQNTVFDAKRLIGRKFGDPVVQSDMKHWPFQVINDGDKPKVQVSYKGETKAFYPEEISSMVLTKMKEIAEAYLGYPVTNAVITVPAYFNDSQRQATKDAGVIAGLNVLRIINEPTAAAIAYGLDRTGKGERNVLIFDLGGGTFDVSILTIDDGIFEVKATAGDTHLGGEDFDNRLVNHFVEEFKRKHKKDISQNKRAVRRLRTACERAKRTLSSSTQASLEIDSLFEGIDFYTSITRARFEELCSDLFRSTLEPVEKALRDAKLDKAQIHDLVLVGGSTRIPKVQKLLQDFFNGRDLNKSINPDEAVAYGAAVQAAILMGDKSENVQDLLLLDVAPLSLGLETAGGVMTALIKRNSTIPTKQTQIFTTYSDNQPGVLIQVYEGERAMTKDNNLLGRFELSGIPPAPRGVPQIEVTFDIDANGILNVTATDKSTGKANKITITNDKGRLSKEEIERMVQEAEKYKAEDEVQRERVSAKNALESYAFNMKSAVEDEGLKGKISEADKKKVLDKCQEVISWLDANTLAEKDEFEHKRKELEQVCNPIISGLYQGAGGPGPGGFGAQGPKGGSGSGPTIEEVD

B1: Biotinylated peptide C (biotin-…) (peptide)
peptide: Biotin-GCEVFGLGWRSYKH
Consider B1, for which the yield of Hsp70 complex formation lay in the range of 20 to 30%.

The record behind these values is patent US20040071656A1, “Modulation of heat-shock-protein-based immunotherapies” (priority 2001, published 2004).
